A word on the stoichiometry N: it is the number of molecules, sites or subunits per partner or assembly.

Here are results for 1 protein from article PMC4041440, “Structural and biophysical characterization of Staphylococcus aureus SaMazF shows conservation of functional dynamics” (Nucleic Acids Research, 2014).

This data set concerns the molecule itself. Description: SEC; analytical gel filtration, Superdex HR75 10/30, 20 mM Tris-HCl pH 8.0, 250 mM NaCl, SaMazF at 3.3 mg/ml; apparent molecular weight about 31 500 Da.

B1: Staphylococcus aureus MazF toxin (SaMazF), N-terminally His-tagged (enzyme)
chain: IRRGDVYLADLSPVQGSEQGGVRPVVIIQNDTGNKYSPTVIVAAITGRINKAKIPTHVEIEKKKYKLDKDSVILLEQIRTLDKKRLKEKLTYLSDDKMKEVDNALMISLGLNAVAHQKN
notes: SaMazF, the MazF toxin (ribonuclease) of the Staphylococcus aureus mazEF module; wild type; 13C15N-labelled for the NMR experiments; The models number the tag's last residues Gln-1, Asp0, Pro1, so the tag's Pro may stand at position 1 of SaMazF in place of Met1; The measured mass is 14 794 Da, for the chain with the tag and without the N-terminal methionine; also called SaMazF2 (the dimer); …
Turning to B1, the “stoichiometry N” value came to 2.
